Measurements from patent US20050130152, “Method for performing in vitro diagnosis using gene regulation mechanisms and corresponding diagnosis kit” (UNISENSOR S.A., published 2005).

Target: T1, TetR class C (tetracycline repressor, pSC101) (Escherichia coli C600 (plasmid pSC101), UniProt P03039 P03039:1-219)
T1 sequence: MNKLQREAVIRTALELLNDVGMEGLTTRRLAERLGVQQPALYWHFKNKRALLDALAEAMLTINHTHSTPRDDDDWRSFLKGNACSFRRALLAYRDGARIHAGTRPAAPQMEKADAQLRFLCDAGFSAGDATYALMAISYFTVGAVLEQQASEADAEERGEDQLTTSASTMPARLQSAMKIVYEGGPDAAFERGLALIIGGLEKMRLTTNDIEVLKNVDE
Test: immunochromatographic strip; test line 5218 without tetracycline, falling to 399 at 100 ppb tetracycline in milk; DNA immobilised via avidin
Conditions: tags: untagged; detected via anti-TetR serum and gold-labelled A-protein in strip assay; chain copies: 2; label: 5'-biotin on teta-40; 31 bp duplex with 5' single-strand poly-T tail
Procedure: 200 μl of milk are incubated in the presence of the lyophilised reagents and prepared as in Point 1.1.2.2. After two minutes of incubation at 37° C., the analysis strip described at 1.3 is immersed in the solution. The final interpretation is carried out after 8 minutes of incubation by means of an optical strip reader available from 77-Elektronika (Budapest, Hungary).

B1: tetA operator of pSC101 (teta-40/teta-30) (dsDNA)
DNA 1: TTTTTTTTTTTAATGCGGTAGTTTATCACAGTTAATTGCTAA
DNA 2: TTAGCAATTAACTGTGATAAACTACCGCATT
B1: binds.
